{"source": "patent US20260176254A1", "about": "“INHIBITORS OF PROSTATE SPECIFIC MEMBRANE ANTIGEN AND USE THEREOF” (SHANGHAI SINOTAU BIOTECH. CO., LTD, priority 2023, published 2026)", "test": "Tissue biodistribution in 22Rv1 tumor mouse model", "set-up": "species or system mice", "settings": "male, nude, in vivo, iv, total radioactivity", "from_the_text": "LnCAP and 22RV1 CDX xenograft tumor models were generated by inoculating 5×10^6 cells/site subcutaneously in male SCID or nude mice (Vital River), respectively. Animals were housed according to IACUC guidance and had accessed to food and water ad libitium. Animals were used for biodistribution study when the tumor dimensions reached around 0.2-0.3 cm^3. […] At each tome point, animals were sacrificed and tissues were collected, weighted, and subjected to radioactivity measurements using gamma counter. Radioactivity in the tissues was presented in % ID/g (percent of injected dose per gram).", "key": {"[1]": {"settings": "Tissue biodistribution: Salivary Gland"}}}
{"smiles": "O=C(O)CCC[C@H](NC(=O)N[C@@H](CCCCNC(=O)[C@H](Cc1c2ccccc2cc2ccccc12)Nc1c(NC23CCC(c4nnc(CN5CCN(CC(=O)O)CCN(CC(=O)O)CCN(CC(=O)O)CC5)o4)(CC2)CC3)c(=O)c1=O)C(=O)O)C(=O)O", "note": "[[^177Lu]Lu-E7, metal not drawn]", "values": [{"measurement": "tissue uptake dose at 2 h", "result": "5.17 ± 0.12", "unit": "%ID"}, {"measurement": "tissue uptake dose at 6 h", "result": "1.71 ± 0.03", "unit": "%ID"}, {"measurement": "tissue uptake dose at 24 h", "result": "1.36 ± 0.04", "unit": "%ID"}, {"measurement": "tissue uptake dose at 72 h", "result": "1.29 ± 0.06", "unit": "%ID"}, {"measurement": "tissue uptake dose at 168 h", "result": "0.23 ± 0.02", "unit": "%ID"}, {"measurement": "tissue uptake at 2 h", "setting": "Tissue biodistribution: Blood", "result": "0.23 ± 0.05", "unit": "%ID/g"}, {"measurement": "tissue uptake at 6 h", "setting": "Tissue biodistribution: Blood", "result": 0.04, "unit": "%ID/g"}, {"measurement": "tissue uptake at 24 h", "setting": "Tissue biodistribution: Blood", "result": 0.02, "unit": "%ID/g"}, {"measurement": "tissue uptake at 72 h", "setting": "Tissue biodistribution: Blood", "result": 0.02, "unit": "%ID/g"}, {"measurement": "tissue uptake at 168 h", "setting": "Tissue biodistribution: Blood", "result": "0.02 ± 0.01", "unit": "%ID/g"}, {"measurement": "tissue uptake at 2 h", "setting": "Tissue biodistribution: Bone", "result": "0.3 ± 0.02", "unit": "%ID/g"}, {"measurement": "tissue uptake at 6 h", "setting": "Tissue biodistribution: Bone", "result": "0.28 ± 0.05", "unit": "%ID/g"}, {"measurement": "tissue uptake at 24 h", "setting": "Tissue biodistribution: Bone", "result": "0.26 ± 0.03", "unit": "%ID/g"}, {"measurement": "tissue uptake at 72 h", "setting": "Tissue biodistribution: Bone", "result": "0.26 ± 0.06", "unit": "%ID/g"}, {"measurement": "tissue uptake at 168 h", "setting": "Tissue biodistribution: Bone", "result": "0.29 ± 0.1", "unit": "%ID/g"}, {"measurement": "tissue uptake at 2 h", "setting": "Tissue biodistribution: Heart", "result": "0.15 ± 0.02", "unit": "%ID/g"}, {"measurement": "tissue uptake at 6 h", "setting": "Tissue biodistribution: Heart", "result": "0.06 ± 0.01", "unit": "%ID/g"}, {"measurement": "tissue uptake at 24 h", "setting": "Tissue biodistribution: Heart", "result": 0.05, "unit": "%ID/g"}, {"measurement": "tissue uptake at 72 h", "setting": "Tissue biodistribution: Heart", "result": "0.05 ± 0.01", "unit": "%ID/g"}, {"measurement": "tissue uptake at 168 h", "setting": "Tissue biodistribution: Heart", "result": "0.07 ± 0.01", "unit": "%ID/g"}, {"measurement": "tissue uptake at 2 h", "setting": "Tissue biodistribution: Kidney", "result": "15.2 ± 5.3", "unit": "%ID/g"}, {"measurement": "tissue uptake at 6 h", "setting": "Tissue biodistribution: Kidney", "result": "8.27 ± 2.15", "unit": "%ID/g"}, {"measurement": "tissue uptake at 24 h", "setting": "Tissue biodistribution: Kidney", "result": "6.73 ± 0.66", "unit": "%ID/g"}, {"measurement": "tissue uptake at 72 h", "setting": "Tissue biodistribution: Kidney", "result": "2.88 ± 1.02", "unit": "%ID/g"}, {"measurement": "tissue uptake at 168 h", "setting": "Tissue biodistribution: Kidney", "result": "0.95 ± 0.16", "unit": "%ID/g"}, {"measurement": "tissue uptake at 2 h", "setting": "Tissue biodistribution: Liver", "result": "0.18 ± 0.02", "unit": "%ID/g"}, {"measurement": "tissue uptake at 6 h", "setting": "Tissue biodistribution: Liver", "result": "0.11 ± 0.01", "unit": "%ID/g"}, {"measurement": "tissue uptake at 24 h", "setting": "Tissue biodistribution: Liver", "result": "0.11 ± 0.01", "unit": "%ID/g"}, {"measurement": "tissue uptake at 72 h", "setting": "Tissue biodistribution: Liver", "result": "0.12 ± 0.02", "unit": "%ID/g"}, {"measurement": "tissue uptake at 168 h", "setting": "Tissue biodistribution: Liver", "result": "0.11 ± 0.02", "unit": "%ID/g"}, {"measurement": "tissue uptake at 2 h", "setting": "Tissue biodistribution: Lung", "result": "0.41 ± 0.08", "unit": "%ID/g"}, {"measurement": "tissue uptake at 6 h", "setting": "Tissue biodistribution: Lung", "result": "0.12 ± 0.02", "unit": "%ID/g"}, {"measurement": "tissue uptake at 24 h", "setting": "Tissue biodistribution: Lung", "result": 0.1, "unit": "%ID/g"}, {"measurement": "tissue uptake at 72 h", "setting": "Tissue biodistribution: Lung", "result": "0.07 ± 0.01", "unit": "%ID/g"}, {"measurement": "tissue uptake at 168 h", "setting": "Tissue biodistribution: Lung", "result": "0.06 ± 0.01", "unit": "%ID/g"}, {"measurement": "tissue uptake at 2 h", "setting": "Tissue biodistribution: Muscle", "result": "0.1 ± 0.02", "unit": "%ID/g"}, {"measurement": "tissue uptake at 6 h", "setting": "Tissue biodistribution: Muscle", "result": "0.04 ± 0.02", "unit": "%ID/g"}, {"measurement": "tissue uptake at 24 h", "setting": "Tissue biodistribution: Muscle", "result": 0.02, "unit": "%ID/g"}, {"measurement": "tissue uptake at 72 h", "setting": "Tissue biodistribution: Muscle", "result": 0.02, "unit": "%ID/g"}, {"measurement": "tissue uptake at 168 h", "setting": "Tissue biodistribution: Muscle", "result": 0.02, "unit": "%ID/g"}, {"measurement": "tissue uptake at 2 h", "setting": "[1]", "result": "0.16 ± 0.01", "unit": "%ID/g"}, {"measurement": "tissue uptake at 6 h", "setting": "[1]", "result": "0.07 ± 0.01", "unit": "%ID/g"}, {"measurement": "tissue uptake at 24 h", "setting": "[1]", "result": 0.08, "unit": "%ID/g"}, {"measurement": "tissue uptake at 72 h", "setting": "[1]", "result": "0.06 ± 0.01", "unit": "%ID/g"}, {"measurement": "tissue uptake at 168 h", "setting": "[1]", "result": "0.06 ± 0.02", "unit": "%ID/g"}, {"measurement": "tissue uptake at 2 h", "setting": "Tissue biodistribution: Spleen", "result": "0.29 ± 0.03", "unit": "%ID/g"}, {"measurement": "tissue uptake at 6 h", "setting": "Tissue biodistribution: Spleen", "result": "0.12 ± 0.03", "unit": "%ID/g"}, {"measurement": "tissue uptake at 24 h", "setting": "Tissue biodistribution: Spleen", "result": 0.13, "unit": "%ID/g"}, {"measurement": "tissue uptake at 72 h", "setting": "Tissue biodistribution: Spleen", "result": "0.12 ± 0.01", "unit": "%ID/g"}, {"measurement": "tissue uptake at 168 h", "setting": "Tissue biodistribution: Spleen", "result": "0.15 ± 0.02", "unit": "%ID/g"}, {"measurement": "tissue uptake at 2 h", "setting": "Tissue biodistribution: Tumor", "result": "15.6 ± 4.67", "unit": "%ID/g"}, {"measurement": "tissue uptake at 6 h", "setting": "Tissue biodistribution: Tumor", "result": "15.6 ± 2.01", "unit": "%ID/g"}, {"measurement": "tissue uptake at 24 h", "setting": "Tissue biodistribution: Tumor", "result": "17.9 ± 0.87", "unit": "%ID/g"}, {"measurement": "tissue uptake at 72 h", "setting": "Tissue biodistribution: Tumor", "result": "12.1 ± 1.94", "unit": "%ID/g"}, {"measurement": "tissue uptake at 168 h", "setting": "Tissue biodistribution: Tumor", "result": "4.04 ± 0.66", "unit": "%ID/g"}, {"measurement": "tissue to tissue ratio at 2 h", "setting": "Tumor/Blood", "result": "70.2 ± 30"}, {"measurement": "tissue to tissue ratio at 6 h", "setting": "Tumor/Blood", "result": "425 ± 28"}, {"measurement": "tissue to tissue ratio at 24 h", "setting": "Tumor/Blood", "result": "848 ± 107"}, {"measurement": "tissue to tissue ratio at 72 h", "setting": "Tumor/Blood", "result": "737 ± 174"}, {"measurement": "tissue to tissue ratio at 168 h", "setting": "Tumor/Blood", "result": "345 ± 220"}, {"measurement": "tissue to tissue ratio at 2 h", "setting": "Tumor/Bone", "result": "52.9 ± 18.6"}, {"measurement": "tissue to tissue ratio at 6 h", "setting": "Tumor/Bone", "result": "57.4 ± 17.9"}, {"measurement": "tissue to tissue ratio at 24 h", "setting": "Tumor/Bone", "result": "70 ± 5.18"}, {"measurement": "tissue to tissue ratio at 72 h", "setting": "Tumor/Bone", "result": "47.8 ± 16.4"}, {"measurement": "tissue to tissue ratio at 168 h", "setting": "Tumor/Bone", "result": "15.6 ± 6.16"}, {"measurement": "tissue to tissue ratio at 2 h", "setting": "Tumor/Kidney", "result": "1.05 ± 0.32"}, {"measurement": "tissue to tissue ratio at 6 h", "setting": "Tumor/Kidney", "result": "1.99 ± 0.69"}, {"measurement": "tissue to tissue ratio at 24 h", "setting": "Tumor/Kidney", "result": "2.67 ± 0.15"}, {"measurement": "tissue to tissue ratio at 72 h", "setting": "Tumor/Kidney", "result": "4.48 ± 1.26"}, {"measurement": "tissue to tissue ratio at 168 h", "setting": "Tumor/Kidney", "result": "4.23 ± 0.07"}]}
